Earlier results as cited in paper PMC6995525, “Structure of the PUB Domain from Ubiquitin Regulatory X Domain Protein 1 (UBXD1) and Its Interaction with the p97 AAA+ ATPase” (Biomolecules, 2019).

Biological target: p97 last 10 residues (Homo sapiens) (UniProt P55072)
Sequence (P55072 whole entry, looked up): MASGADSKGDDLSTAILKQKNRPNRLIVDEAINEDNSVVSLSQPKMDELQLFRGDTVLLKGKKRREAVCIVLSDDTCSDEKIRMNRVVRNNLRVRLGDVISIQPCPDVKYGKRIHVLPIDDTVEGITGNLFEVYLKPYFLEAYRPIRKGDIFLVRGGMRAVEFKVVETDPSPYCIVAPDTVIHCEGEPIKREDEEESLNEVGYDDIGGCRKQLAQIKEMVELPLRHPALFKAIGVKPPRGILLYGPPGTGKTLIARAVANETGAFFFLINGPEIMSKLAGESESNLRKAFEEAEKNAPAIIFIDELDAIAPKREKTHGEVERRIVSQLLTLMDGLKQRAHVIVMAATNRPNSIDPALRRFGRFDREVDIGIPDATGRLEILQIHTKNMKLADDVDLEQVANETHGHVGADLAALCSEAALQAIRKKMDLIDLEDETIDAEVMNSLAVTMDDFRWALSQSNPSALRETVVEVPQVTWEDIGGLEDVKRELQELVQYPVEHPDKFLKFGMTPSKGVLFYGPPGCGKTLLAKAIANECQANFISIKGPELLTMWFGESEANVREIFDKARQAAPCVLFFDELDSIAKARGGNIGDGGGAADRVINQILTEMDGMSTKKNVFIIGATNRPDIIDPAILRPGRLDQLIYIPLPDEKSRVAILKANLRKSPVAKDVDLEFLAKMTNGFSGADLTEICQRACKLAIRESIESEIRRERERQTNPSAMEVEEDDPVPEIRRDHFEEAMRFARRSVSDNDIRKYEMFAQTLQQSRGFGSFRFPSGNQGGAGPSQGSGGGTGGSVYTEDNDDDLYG

Chain of UBXD1 PUB (Q9BZV1 172-247): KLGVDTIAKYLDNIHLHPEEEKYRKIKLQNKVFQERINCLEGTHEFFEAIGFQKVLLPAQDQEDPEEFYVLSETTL

- Kd: 12 µM
Substance: UBXD1 PUB (from UniProt Q9BZV1)
